± gives the uncertainty stated by the source.
Assay: self-splicing fitness, log relative to wild type (ln ratio); higher = more splicing; Tetrahymena group I intron in knt gene, E. coli kanamycin selection, DiMSum; sequences stand for … in CUCUCU…GGAGGGAAAAGUUAUCAGGCAUGCACCUGGUAGCUAGUCUUUAAACCAAUAGAUUGCAUCGGUUUAAAAGGCAAGACCGUCAAAUUGCGGGAAAGGGGUCAACAGCCGUUCAGUACCAAGUCUCAGGGGAAACUUUGAGAUGGCCUUGCAAAGGGUAUGGUAAUAAGCUGACGGACAUGGUCCUAACCACGCAGCCAAGUCCUAAGUCAACAGAUCUUCUGUUGAUAUGGAUGCAGUUCACAGACUAAAUGUCGGUCGGGGAAGAUGUAUUCUUCUCAUAAGAUAUAGUCGGACCUCUCCUUAAUGGGAGCUAGCGGAUGAAGUGAUGCAACACUGGAGCCGCUGGGAACUAAUUUGUAUGCGAAAGUAUAUUGAUUAGUUUUGGAGUACUCGUGGUCG
How it was run: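 Fitness was computed with DiMSum as the error-weighted combination of replicate fold changes, kanamycin versus none, each normalised to wild type. The library randomised all eight intron nucleotides of the P1ex region, with the intron placed in the knt kanamycin-resistance gene on pET-22b(+) in E. coli BL21(DE3). Six replicate transformations were grown overnight at 37°C or 30°C on LB agar with or without 25 μg/mL kanamycin, plus 100 μg/mL carbenicillin, 50 μM IPTG and 0.2% rhamnose. Pooled colonies were amplicon-sequenced on an Illumina HiSeq 2500.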

Row | Sequence | self-splicing fitness (ln) (30 °C) | self-splicing fitness (ln) (37 °C)
1 | UGGAAGCAAUAUUACGCACA | -1.44 ± 0.2 | 0.0258 ± 0.2
2 | CCUGAGCAAUAUUACGCAGU | -2.91 ± 0.2 | -2.84 ± 0.28
3 | CGCUAGCAAUAUUACGUCGA | -2.02 ± 0.35 | -1.78 ± 0.32
4 | GGAUAGCAAUAUUACGAAGU | -2.68 ± 0.29 | -2.02 ± 0.25
5 | CAACAGCAAUAUUACGUUCA | -1.06 ± 0.051 | 0.193 ± 0.061
6 | UGAAAGCAAUAUUACGGUUU | -1.87 ± 0.1 | -1.16 ± 0.12
7 | UGAGAGCAAUAUUACGUUAU | -2.88 ± 0.23 | -2.89 ± 0.43
8 | UUUAAGCAAUAUUACGUAUG | -1.44 ± 0.13 | -0.482 ± 0.16
9 | UGAUAGCAAUAUUACGGGGC | -3.5 ± 0.29 | 
10 | UCCCAGCAAUAUUACGGAAC | -4.36 ± 0.27 | -2.65 ± 0.18
11 | CGUAAGCAAUAUUACGUUAC | -3.56 ± 0.26 | -2.03 ± 0.28
12 | CGGAAGCAAUAUUACGCACC | -2.4 ± 0.32 | -1.19 ± 0.27
13 | AAAUAGCAAUAUUACGUCCG | -1.39 ± 0.16 | 0.00872 ± 0.18
14 | AGUGAGCAAUAUUACGCUUC | -2.41 ± 0.25 | -2.7 ± 0.34
15 | AGUUAGCAAUAUUACGCAGG | -2.31 ± 0.3 | -0.586 ± 0.29
16 | CUCGAGCAAUAUUACGAACA | -1.56 ± 0.41 | -2.03 ± 0.49
17 | UAGGAGCAAUAUUACGUAUC | -1.71 ± 0.2 | 
18 | GCAUAGCAAUAUUACGUAGG | -2.32 ± 0.11 | -1.31 ± 0.13
19 | CCAGAGCAAUAUUACGAAUG | -1.73 ± 0.097 | -0.868 ± 0.12
20 | UGAAAGCAAUAUUACGCGUC | -2.59 ± 0.31 | -2.56 ± 0.34
21 | GCGGAGCAAUAUUACGACAA | -1.13 ± 0.23 | -1.7 ± 0.29
22 | UGCGAGCAAUAUUACGAUCA | 0.0986 ± 0.13 | 0.104 ± 0.14
23 | GCCGAGCAAUAUUACGCCGC | -3.95 ± 0.43 | 
24 | CCACAGCAAUAUUACGAGGU | -4.41 ± 0.2 | -2.81 ± 0.16
25 | GUUAAGCAAUAUUACGUUCG | -1.6 ± 0.13 | -0.376 ± 0.16

Row | Sequence | self-splicing fitness (ln) (30 °C) | self-splicing fitness (ln) (37 °C)
26 | CAACAGCAAUAUUACGCGGG | -2.63 ± 0.14 | -2.12 ± 0.14
27 | CCCUAGCAAUAUUACGUCUA | -2.5 ± 0.19 | -2.12 ± 0.2
28 | GGGAAGCAAUAUUACGGGAU |  | -0.0224 ± 0.27
29 | GACGAGCAAUAUUACGAAUC |  | -2.14 ± 0.4
30 | UCAUAGCAAUAUUACGUGGU | -3.42 ± 0.16 | -2.8 ± 0.16
31 | UCGUAGCAAUAUUACGAUGG | -1.88 ± 0.12 | -1.07 ± 0.14
32 | CACGAGCAAUAUUACGGGAU | -3.52 ± 0.28 | -2.33 ± 0.21
33 | CCAUAGCAAUAUUACGAGCU | -3.04 ± 0.36 | -2.9 ± 0.47
34 | GAAGAGCAAUAUUACGCUCC | -2.52 ± 0.24 | 
35 | CCCCAGCAAUAUUACGGACA | -3.52 ± 0.14 | -2.53 ± 0.14
36 | AUCUAGCAAUAUUACGCGCA | -0.448 ± 0.1 | -0.485 ± 0.11
37 | UAUAAGCAAUAUUACGUCAG | -1.22 ± 0.11 | -0.547 ± 0.17
38 | CAGAAGCAAUAUUACGUUAA | -3.62 ± 0.27 | -3.02 ± 0.43
39 | CGGUAGCAAUAUUACGACAG | -0.475 ± 0.15 | 0.021 ± 0.16
40 | UGCGAGCAAUAUUACGAAAU | -2.85 ± 0.18 | -2.65 ± 0.38
41 | UGAAAGCAAUAUUACGUGCA | 0.0492 ± 0.078 | 0.75 ± 0.098
42 | GGGGAGCAAUAUUACGUUAG | -3.73 ± 0.43 | -0.485 ± 0.33
43 | CCAAAGCAAUAUUACGGAAG | -2 ± 0.056 | -1.11 ± 0.074
44 | CAGGAGCAAUAUUACGGAGA | -2.81 ± 0.28 | -2.34 ± 0.37
45 | CGGUAGCAAUAUUACGUCGU | -3.85 ± 0.22 | -2.02 ± 0.24
46 | AGGAAGCAAUAUUACGACUC | -0.644 ± 0.3 | -0.886 ± 0.45
47 | AGACAGCAAUAUUACGGCAC | -0.629 ± 0.086 | -1.09 ± 0.094
48 | AUCCAGCAAUAUUACGUUAA | -1.79 ± 0.11 | -1.1 ± 0.12
49 | GUCCAGCAAUAUUACGUGCG | -1.15 ± 0.085 | -1.14 ± 0.12
50 | CCCCAGCAAUAUUACGCGUA | -3.87 ± 0.25 | -2.46 ± 0.18

Row | Sequence | self-splicing fitness (ln) (30 °C) | self-splicing fitness (ln) (37 °C)
51 | UUCAAGCAAUAUUACGACGG | -1.5 ± 0.11 | -0.143 ± 0.12
52 | CCGUAGCAAUAUUACGCAAG | -2.09 ± 0.18 | -1.46 ± 0.18
53 | CUGUAGCAAUAUUACGCCGC | -2.54 ± 0.41 | -1.08 ± 0.47
54 | CAUAAGCAAUAUUACGUGGA | -3.5 ± 0.22 | -2.53 ± 0.21
55 | CUUCAGCAAUAUUACGUUUC | -2.93 ± 0.17 | -2.17 ± 0.2
56 | GGUGAGCAAUAUUACGAUUG | -3.77 ± 0.39 | -1.79 ± 0.4
57 | GCGUAGCAAUAUUACGAUAU | -0.111 ± 0.081 | -0.357 ± 0.1
58 | CACGAGCAAUAUUACGACUA | -2.71 ± 0.21 | -1.85 ± 0.15
59 | AGAAAGCAAUAUUACGCUUA | -1.63 ± 0.11 | -0.632 ± 0.087
60 | CCACAGCAAUAUUACGAUCA | -2.69 ± 0.33 | -1.98 ± 0.28
61 | GGAAAGCAAUAUUACGCCCG | -0.767 ± 0.21 | -0.0766 ± 0.23
62 | UAGCAGCAAUAUUACGCGAG | -1.83 ± 0.097 | -0.971 ± 0.11
63 | ACCUAGCAAUAUUACGGUCC | -2.82 ± 0.15 | -2 ± 0.15
64 | AUUUAGCAAUAUUACGAAGG | -3.42 ± 0.38 | -2.76 ± 0.41
65 | CUGUAGCAAUAUUACGCAUA | -2.83 ± 0.47 | -2.43 ± 0.41
66 | AAACAGCAAUAUUACGGCGU | -0.571 ± 0.053 | -0.336 ± 0.063
67 | CGGAAGCAAUAUUACGUGGA | -2.79 ± 0.14 | -2.93 ± 0.21
68 | GAUGAGCAAUAUUACGCCUC | -2.56 ± 0.36 | -1.01 ± 0.38
69 | CACCAGCAAUAUUACGGCCC | -1.8 ± 0.17 | -0.352 ± 0.19
70 | AUCCAGCAAUAUUACGCACU | -0.149 ± 0.11 | 0.144 ± 0.11
71 | GGUAAGCAAUAUUACGCACU |  | -2.23 ± 0.2
72 | UCUUAGCAAUAUUACGGCAG | -3.36 ± 0.26 | -2.23 ± 0.3
73 | UCGUAGCAAUAUUACGUUGU | -4.46 ± 0.46 | -2.43 ± 0.23
74 | AAAGAGCAAUAUUACGCUCA |  | -0.771 ± 0.37
75 | UCGGAGCAAUAUUACGACAU | -3.91 ± 0.041 | -2.98 ± 0.052

Row | Sequence | self-splicing fitness (ln) (30 °C) | self-splicing fitness (ln) (37 °C)
76 | UCGAAGCAAUAUUACGUGAA | -2.53 ± 0.13 | -1.13 ± 0.12
77 | AUGGAGCAAUAUUACGGGAC | -5.23 ± 0.41 | -2.7 ± 0.25
78 | CGAUAGCAAUAUUACGCGUG | -1.89 ± 0.092 | -0.431 ± 0.1
79 | GAAAAGCAAUAUUACGGUGA | -1.48 ± 0.07 | -1.07 ± 0.075
80 | UCCCAGCAAUAUUACGGAAA | -2.01 ± 0.19 | -0.716 ± 0.13
81 | ACAAAGCAAUAUUACGCUUA | -2.37 ± 0.12 | -1.71 ± 0.13
82 | AUCAAGCAAUAUUACGUCUC | -2.08 ± 0.087 | -1.16 ± 0.11
83 | UCAGAGCAAUAUUACGAUGA | -0.825 ± 0.2 | 0.109 ± 0.21
84 | CGUUAGCAAUAUUACGAUGC | -0.888 ± 0.21 | -1.63 ± 0.31
85 | CGGAAGCAAUAUUACGUAAC |  | -2.71 ± 0.27
86 | CUCAAGCAAUAUUACGCAGG | -2.99 ± 0.23 | -2.84 ± 0.31
87 | UCGCAGCAAUAUUACGCAGU | -3.58 ± 0.2 | -2.35 ± 0.2
88 | GCGGAGCAAUAUUACGCAUG |  | -2.8 ± 0.44
89 | AUCAAGCAAUAUUACGUGCG | -1.03 ± 0.079 | 0.202 ± 0.099
90 | GUAGAGCAAUAUUACGCGCC | -3.54 ± 0.29 | -1.67 ± 0.38
91 | UAAUAGCAAUAUUACGUGAU | -4.15 ± 0.37 | -1.61 ± 0.21
92 | AAUUAGCAAUAUUACGGCGA | -0.312 ± 0.1 | 0.113 ± 0.1
93 | UUCUAGCAAUAUUACGCGGG | -3.28 ± 0.23 | -2.29 ± 0.22
94 | UUCCAGCAAUAUUACGAUGC | -3.4 ± 0.23 | -2.79 ± 0.23
95 | CGCAAGCAAUAUUACGUGGA | -3.37 ± 0.16 | -1.6 ± 0.095
96 | AUGAAGCAAUAUUACGGCAA | 0.00287 ± 0.12 | 0.0978 ± 0.14
97 | ACAAAGCAAUAUUACGAAUA | -3.62 ± 0.29 | -1.95 ± 0.17
98 | GGGUAGCAAUAUUACGUCUA | -0.297 ± 0.15 | 0.226 ± 0.16

From the supplement of paper PMC7877785
